Molecular target: T1, Sgo1^1–150-His6-MBP (X. laevis, UniProt Q4KLP8 1-150)
T1 sequence (looked up): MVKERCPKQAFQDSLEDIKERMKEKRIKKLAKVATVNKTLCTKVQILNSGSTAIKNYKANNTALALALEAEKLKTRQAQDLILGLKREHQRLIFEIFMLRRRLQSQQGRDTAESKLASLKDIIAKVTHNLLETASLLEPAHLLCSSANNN
Assay: supernatant depletion

B1: GST-Borealin-2^216–296 (domain or fragment)
chain: not shown
B1 showed a Kd of 10 ± 1.6 µM.

Source: PMC7550704 (Molecular Biology of the Cell, 2020)
